The source of these data is PMC7647453.

One may read the Kd as the free concentration of one partner at which half of the binding sites on the other are occupied at equilibrium, for simple one-to-one binding. The low end stands for higher affinity, the high end for lower affinity.

What all share (assay): MST
For assay [1], the target named is NanoTemper RED-labeled FVIIa (FVIIa-R) (human) (UniProt P08709).
The target is the same in assay [2]. The source holds these as a separate data set.
The target is the same in assay [3]. This is another data set of the same source.
Assay [4] has the same target. This is another data set of the same source.
The target is the same in assay [5]. This is another data set of the same source.
Assay [6] has the same target. The source holds these as a separate data set.
Assay [7] has the same target. This is another data set of the same source.
Assay [8] shares this target. The source holds these as a separate data set.
Assay [9] has the same target. The source holds these as a separate data set.
Assay [10] shares this target. The source holds these as a separate data set.
Assay [11] has the same target. The source holds these as a separate data set.
Assay [12] has the same target. This is another data set of the same source.
For assay [13] the target is unchanged. This is another data set of the same source.

Where two headings read alike, the source gives them in different places.

UniProt P08709, sequence (P08709 61-212, chain 1 of 2): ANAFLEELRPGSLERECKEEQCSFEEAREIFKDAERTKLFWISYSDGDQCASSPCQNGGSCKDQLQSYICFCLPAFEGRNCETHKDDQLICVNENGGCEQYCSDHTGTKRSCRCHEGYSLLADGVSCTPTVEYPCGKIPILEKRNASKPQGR
UniProt P08709, sequence (P08709 213-466, chain 2 of 2): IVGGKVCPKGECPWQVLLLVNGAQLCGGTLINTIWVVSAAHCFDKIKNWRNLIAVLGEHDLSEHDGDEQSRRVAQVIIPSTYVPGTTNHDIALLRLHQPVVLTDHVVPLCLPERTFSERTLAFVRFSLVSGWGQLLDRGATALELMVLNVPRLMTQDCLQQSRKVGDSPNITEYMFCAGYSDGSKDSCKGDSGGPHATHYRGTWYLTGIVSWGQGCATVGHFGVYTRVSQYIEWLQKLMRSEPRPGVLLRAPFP

On to “gCΔ457t (soluble recombinant HSV1 glycoprotein C) (from UniProt P10228 25-511) (domain or fragment)”, for which the Kd in assay [1] was more than 12000 nM; in assay [2] it was 2900 nM; in [3], 2000 nM; in [4] it was 1600 nM; in assay [5] it was 900 nM; in [6] it was 1000 nM. In addition, the Kd is 1300 nM in assay [7]; 800 nM in assay [8]; more than 13000 nM in assay [9]; 600 nM in assay [10]; 400 nM in assay [11]; 2200 nM in [12]. In addition, in assay [13], the Kd worked out at 2700 nM.
